One experiment deals with HLA-A*30:02. In words: IEDB peptide-MHC binding, purified MHC/competitive/radioactivity; filed as Kd, often an IC50 or EC50 that approximates it; ≥ and ≤ were set here for values at or beyond the usual limits of such assays.
Another experiment deals with HLA-A*23:01. The description is as above.
Experiment [1] concerns the target HLA-A*01:01. Described as above.
Another experiment has as its target HLA-A*24:02. The description is as above.
The next experiment has as its target HLA-A*26:01. The experiment is described as above.
A further experiment deals with HLA-A*29:02. Described as above.
A further experiment addresses HLA-A*33:01. The experiment is described as above. The note with it: source organism: Triticum aestivum.
For a further experiment, the target named is HLA-A*03:01. The description is as above. The conditions noted are these: source organism: Triticum aestivum.
In the next experiment the target is HLA-A*31:01. Described as above. The note with it: source organism: Triticum aestivum.
The next experiment has as its target HLA-A*11:01. The experiment is described as above. The conditions noted are these: source organism: Triticum aestivum.
A further experiment deals with HLA-A*68:01. Described as above. The note with it: source organism: Triticum aestivum.
In the next experiment the target is HLA-B*53:01. The description is as above.
Experiment [2] deals with HLA-B*15:01. The experiment is described as above.
For another experiment, the target named is HLA-B*35:01. Described as above.
The target in a further experiment is HLA-B*58:01. In words: IEDB peptide-MHC binding, purified MHC/direct/fluorescence; filed as Kd, often an IC50 or EC50 that approximates it; ≥ and ≤ were set here for values at or beyond the usual limits of such assays. The conditions noted are these: source organism: SARS-CoV1.
For experiment [3], the target named is HLA-A*01:01. Described as above. The note with it: source organism: SARS-CoV1.
Experiment [4] addresses HLA-B*15:01. The description is as above. The note with it: source organism: SARS-CoV1.
Another experiment addresses HLA-B*18:01. The description is as above.
Another experiment has as its target HLA-B*44:02. The experiment is described as above.
A further experiment deals with HLA-B*40:01. The description is as above.
A further experiment deals with HLA-B*51:01. In words: IEDB peptide-MHC binding, purified MHC/competitive/radioactivity; filed as Kd, often an IC50 or EC50 that approximates it; ≥ and ≤ were set here for values at or beyond the usual limits of such assays. The note with it: source organism: Dengue virus 1 Nauru/West Pac/1974.
The mark [5] stands for this setting: source organism: SARS coronavirus Tor2.
[6] abbreviates: source organism: Mammarenavirus whitewaterense.
The mark [7] stands for this setting: source organism: Mammarenavirus guanaritoense.
The mark [8] stands for this setting: source organism: Triticum aestivum.
Where [9] appears, read: source organism: Dengue virus 1 Brazil/97-11/1997.
[10] abbreviates: source organism: Dengue virus 4 Philippines/H241/1956.
Where [11] appears, read: source organism: Dengue virus 2 Jamaica/1409/1983.
[12] abbreviates: source organism: Dengue virus 3 Singapore/8120/1995.
Setting [13] is: source organism: Influenza A virus (A/WSN/1933(H1N1)).
Where [14] appears, read: source organism: Dengue virus 3 Martinique/1243/1999.
The mark [15] stands for this setting: source organism: Dengue virus 3 Sri Lanka/1266/2000.
Setting [16] is: source organism: Influenza A virus (A/tern/Australia/1/04(H2N5)).
Setting [17] is: source organism: Dengue virus 1 Nauru/West Pac/1974.

As usually defined, the Kd is the equilibrium constant for the complex coming apart.

In the case of LKEPCPSGTY, the dissociation constant (Kd) is 69.8 nM with HLA-A*30:02 (setting [5]); ≥ 70000 nM with HLA-A*23:01 (setting [5]); 14100 nM with HLA-A*01:01 [1] (setting [5]); ≥ 70300 nM in the experiment with HLA-A*24:02 (setting [5]); 5440 nM with HLA-A*26:01 (setting [5]); 1560 nM in the experiment with HLA-A*29:02 (setting [5]).

KFWYVNHTGF: the figures for the Kd with HLA-A*23:01 (setting [6]), with HLA-A*24:02 (setting [6]) and with HLA-A*29:02 (setting [6]) were 80.9 nM, 604 nM and 341 nM, respectively.

Regarding FFGALKFKI, the figures for the Kd with HLA-A*23:01 (setting [7]), with HLA-A*24:02 (setting [7]) and with HLA-A*29:02 (setting [7]) were 207 nM, 2150 nM and 20.3 nM, respectively.

In the case of VSFQQPQQQY, the equilibrium dissociation constant (Kd) with HLA-A*33:01 was ≥ 70000 nM; in the experiment with HLA-A*03:01, ≥ 70100 nM; in the experiment with HLA-A*31:01, ≥ 70000 nM; with HLA-A*11:01 it was 1770 nM; with HLA-A*68:01, ≥ 70200 nM; in the experiment with HLA-A*30:02 (setting [8]) it was 0.209 nM. Also, the Kd in the experiment with HLA-A*23:01 (setting [8]) is ≥ 38800 nM; with HLA-A*24:02 (setting [8]), ≥ 70300 nM; in the experiment with HLA-A*26:01 (setting [8]) it was ≥ 26100 nM; in the experiment with HLA-A*29:02 (setting [8]), 55.5 nM.

As to PVSDLKYSW, the equilibrium dissociation constant (Kd) in the experiment with HLA-B*53:01 (source organism: Dengue virus 4 Dominica/814669/1981) stood at 1690 nM.

As for IMMLKLLTEF, the results for the Kd with HLA-A*24:02 (setting [9]) and in the experiment with HLA-B*15:01 [2] (setting [9]) were 309 nM and 6.24 nM, respectively.

Consider ILKKLSPYF, for which the Kd in the experiment with HLA-B*15:01 [2] (source organism: Vaccinia virus WR) is 1.18 nM.

On to MAMTCIAVG, for which the Kd with HLA-B*35:01 (setting [10]) was 116 nM.

In the case of EPEVANLDII, the dissociation constant (Kd) with HLA-B*53:01 (setting [9]) came to 8450 nM.

Consider YYFMKFRRVF, for which the dissociation constant (Kd) in the experiment with HLA-A*30:02 (setting [5]) is ≥ 22200 nM; with HLA-A*23:01 (setting [5]), 1.51 nM; with HLA-A*01:01 [1] (setting [5]), 3180 nM; in the experiment with HLA-A*24:02 (setting [5]) it was 3.92 nM; with HLA-A*26:01 (setting [5]), 1750 nM; with HLA-A*29:02 (setting [5]), 2.8 nM.

For ILGAQALPVY, the Kd with HLA-A*30:02 (setting [10]) was 80.8 nM; with HLA-A*01:01 [1] (setting [10]), ≥ 70400 nM; with HLA-B*15:01 [2] (setting [10]), 4.87 nM.

Regarding YSDPLALREF, the figures for the Kd with HLA-A*01:01 [1] (setting [9]), with HLA-B*35:01 (setting [9]) and with HLA-B*53:01 (setting [9]) were 21.3 nM, 1890 nM and 899 nM, respectively.

In the case of WIAASIILEF, the dissociation constant (Kd) in the experiment with HLA-B*15:01 [2] (setting [11]) is 6.22 nM.

With HMIAGVLFTF, the dissociation constant Kd with HLA-A*24:02 (setting [12]) was determined as 431 nM; with HLA-B*15:01 [2] (setting [12]) it was 2.03 nM; with HLA-A*26:01 (setting [12]) it was 1160 nM.

For FTERSDKSY, the Kd in the experiment with HLA-A*30:02 (setting [5]) is 53.5 nM; in the experiment with HLA-A*23:01 (setting [5]) it was ≥ 77800 nM; with HLA-A*24:02 (setting [5]) it was ≥ 77600 nM; with HLA-A*26:01 (setting [5]), 6230 nM; with HLA-A*29:02 (setting [5]), 68.5 nM; in the experiment with HLA-B*58:01, 2800 nM. Besides, the values for the Kd with HLA-A*01:01 [3] and with HLA-B*15:01 [4] were 65 nM and 497 nM, respectively.

As to AESRKLLLI, the Kd in the experiment with HLA-B*18:01 (setting [13]) was ≥ 20000 nM; with HLA-B*44:02 (setting [13]) it was ≥ 53000 nM; in the experiment with HLA-B*40:01 (setting [13]), 158 nM.

EPGVVSPTSY: the dissociation constant Kd with HLA-B*35:01 (setting [14]) came to 592 nM; in the experiment with HLA-B*53:01 (setting [14]), 313 nM.

For LIVSGIFPY, the dissociation constant Kd in the experiment with HLA-A*30:02 (setting [15]) was ≥ 76900 nM; in the experiment with HLA-B*35:01 (setting [15]) it was 82.7 nM; with HLA-B*15:01 [2] (setting [15]), 2.91 nM; in the experiment with HLA-A*26:01 (setting [15]), 1160 nM.

In the case of SETQGTEKL, the values for the equilibrium dissociation constant (Kd) with HLA-B*18:01 (setting [16]), with HLA-B*44:02 (setting [16]) and with HLA-B*40:01 (setting [16]) were 2040 nM, ≥ 20000 nM and 10.5 nM, respectively.

Regarding LYAVATTII, the dissociation constant (Kd) in the experiment with HLA-B*51:01 was 1390 nM; in the experiment with HLA-A*23:01 (setting [17]), 211 nM; with HLA-A*24:02 (setting [17]), 59.7 nM.

Regarding VTYLALLAAF, the dissociation constant (Kd) in the experiment with HLA-A*01:01 [1] (setting [11]) is 14800 nM; with HLA-B*15:01 [2] (setting [11]), 40.7 nM; with HLA-A*26:01 (setting [11]), ≥ 69700 nM.

The values above are taken from the Immune Epitope Database (IEDB).
